Biological target: T1, full-length mouse RabGEF1 expressed as GAL-4 activation domain fusion protein (mouse, UniProt Q9JM13 1-491)
T1 construct: mature; Yeast two-hybrid prey in pACT2; also called Rabex-5
Experiment: yeast two-hybrid, beta-galactosidase assays
Source text: FIG. 2A-2C. Homology of RabGEF1 with members of a Rab5 binding protein family and direct interaction of RabGEF1 with Ras. (a) Alignment of amino acid sequences of mouse RabGEF1 (SEC ID NO:5) with the Vps9p domains of Vps9p (SEC ID NO:6), Rin1, (SEC ID NO:7), and JC265(SEC ID NO:8). The Vps9p domains of Vps9p, RIN1, and JC265 and the proposed GBH motifs I(SEC ID NO:9), II(SEC ID NO:10), and III(SEC ID NO:11) illustrated here represent those previously described. Identical amino acids or conservative substitutions present in three or four proteins are shaded. […] Different segments of the mouse RabGEF1 protein (shaded areas are Vps9p domains; black areas are putative GBH motifs) were expressed as GAL-4 activation domain fusion proteins, whereas the mouse H-Ras and yeast Ras2p proteins were expressed as DNA-binding fusion proteins. Positive interactions were assessed with both a qualitative colony-lift β-galactosidase filter assay using X-gal as the substrate (Colony color) and a quantitative liquid culture β-galactosidase assay using chlorophenol red-β-D-galactopyranoside as the substrate (Relative β-Gal units). […] The pulled-down RabGEF1 was detected using an anti-RabGEF1 antibody. […]
Yeast two-hybrid assay. […] The entire open reading frame and different segments of the open reading frame of the mouse RabGEF1 cDNA were separately subcloned, in frame, into the pACT2 vector.

T1 sequence (Q9JM13 whole entry, the tested form may be a part): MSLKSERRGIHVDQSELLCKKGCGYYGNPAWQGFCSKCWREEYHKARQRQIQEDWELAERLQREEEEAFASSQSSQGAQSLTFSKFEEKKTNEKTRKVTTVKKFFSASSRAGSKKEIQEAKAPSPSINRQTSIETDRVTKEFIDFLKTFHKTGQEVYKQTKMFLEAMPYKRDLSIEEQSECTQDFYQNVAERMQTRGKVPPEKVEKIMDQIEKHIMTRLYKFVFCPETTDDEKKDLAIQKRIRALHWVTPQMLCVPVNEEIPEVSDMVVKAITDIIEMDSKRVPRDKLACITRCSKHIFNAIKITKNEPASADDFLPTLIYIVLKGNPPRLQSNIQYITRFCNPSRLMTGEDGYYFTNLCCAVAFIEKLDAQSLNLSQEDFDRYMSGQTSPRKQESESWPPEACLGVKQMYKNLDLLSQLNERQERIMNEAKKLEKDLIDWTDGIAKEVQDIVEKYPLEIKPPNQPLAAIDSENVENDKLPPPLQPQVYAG

B1: yeast Ras2p expressed as DNA-binding fusion protein (other, UniProt P04386 1-147, looked up)
chain: MKLLSSIEQACDICRLKKLKCSKEKPKCAKCLKNNWECRYSPKTKRSPLTRAHLTEVESRLERLEQLFLLIFPREDLDMILKMDSLQDIKALLTGLFVQDNVNKDAVTDRLASVETDMPLTLRQHRISATSSSEESSNKGQRQLTVSMPLNKSNIREYKLVVVGGGGVGKSALTIQLTQSHFVDEYDPTIEDSYRKQVVIDDEVSILDILDTAGQEEYSAMREQYMRNGEGFLLVYSITSKSSLDELMTYYQQILRVKDTDYVPIVVVGNKSDLENEKQVSYQDGLNMAKQMNAPFLETSAKQAINVEEAFYTLARLVRDEGGKYNKTLTENDNSKQTSQDTKGSGANSVPRNSGGHRKMSNAANGKNVNSSTTVVNARNASIESKTGLAGNQATNGKTQTDRTNIDNSTGQAGQANAQSANTVNNRVNNNSKAGQVSNAKQARKQQAAPGGNTSEASKSGSGGSCIIS
Question: Does B1 bind?
Answer: no binding

Source: patent US7365239 (Stanford University, dated 2008)
